# Source: publication PMC3069016 (Molecular Biology of the Cell, 2011)
# T1: Csn10-CBP-A2 (S. cerevisiae, UniProt Q12348 1-645)
# T1 sequence (looked up): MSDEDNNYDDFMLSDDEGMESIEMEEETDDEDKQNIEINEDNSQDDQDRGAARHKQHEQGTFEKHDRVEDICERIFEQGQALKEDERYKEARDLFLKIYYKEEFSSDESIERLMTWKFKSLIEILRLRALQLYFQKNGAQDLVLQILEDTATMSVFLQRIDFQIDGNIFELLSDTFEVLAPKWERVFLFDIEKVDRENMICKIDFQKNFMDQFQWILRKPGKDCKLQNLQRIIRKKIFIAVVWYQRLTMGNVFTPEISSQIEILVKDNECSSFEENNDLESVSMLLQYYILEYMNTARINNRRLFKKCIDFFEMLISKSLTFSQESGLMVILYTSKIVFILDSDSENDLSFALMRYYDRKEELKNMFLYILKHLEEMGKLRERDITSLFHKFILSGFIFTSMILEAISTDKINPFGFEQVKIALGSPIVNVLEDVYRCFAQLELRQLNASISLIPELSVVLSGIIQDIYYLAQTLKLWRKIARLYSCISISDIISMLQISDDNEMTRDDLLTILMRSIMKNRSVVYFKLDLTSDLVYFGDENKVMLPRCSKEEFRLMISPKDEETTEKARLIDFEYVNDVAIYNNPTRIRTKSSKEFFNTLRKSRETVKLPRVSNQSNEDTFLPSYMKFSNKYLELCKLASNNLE
# Target: T1, Csn10-CBP-A2
# Test: affinity purification with mass spectrometry
binder,measurement,value
"Rpn5 (natural protein, S. cerevisiae, UniProt Q12250 1-445, looked up) MSRDAPIKADKDYSQILKEEFPKIDSLAQNDCNSALDQLLVLEKKTRQASDLASSKEVLAKIVDLLASRNKWDDLNEQLTLLSKKHGQLKLSIQYMIQKVMEYLKSSKSLDLNTRISVIETIRVVTENKIFVEVERARVTKDLVEIKKEEGKIDEAADILCELQVETYGSMEMSEKIQFILEQMELSILKGDYSQATVLSRKILKKTFKNPKYESLKLEYYNLLVKISLHKREYLEVAQYLQEIYQTDAIKSDEAKWKPVLSHIVYFLVLSPYGNLQNDLIHKIQNDNNLKKLESQESLVKLFTTNELMRWPIVQKTYEPVLNEDDLAFGGEANKHHWEDLQKRVIEHNLRVISEYYSRITLLRLNELLDLTESQTETYISDLVNQGIIYAKVNRPAKIVNFEKPKNSSQLLNEWSHNVDELLEHIETIGHLITKEEIMHGLQAK",stoichiometry N,1
